One molecule from publication PMC2408616, “Modular Organization and Combinatorial Energetics of Proline–Tyrosine Nuclear Localization Signals” (PLoS Biology, 2008) can be followed below.

Holding throughout (experiment): ITC
In general terms: Isothermal titration calorimetry measures the heat released or taken up as one component is titrated into another.

The target of one experiment is T1, MBP–Nab2p NLS F236A (S. cerevisiae, UniProt P32505 201-251, F236A).
T1 sequence: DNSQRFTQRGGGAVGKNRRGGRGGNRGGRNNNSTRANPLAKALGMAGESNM

The target in experiment [1] is T2, MBP–Nab2p NLS, all of the arginines mutated to lysines (S. cerevisiae, UniProt P32505 201-251, R218K | R219K | R222K | R226K | R229K).
T2 sequence: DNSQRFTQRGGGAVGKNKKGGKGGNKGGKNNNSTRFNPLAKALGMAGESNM

For a further experiment, the target named is T3, MBP–Nab2p NLS R235H (S. cerevisiae, UniProt P32505 201-251, R235 to histidine).
T3 sequence: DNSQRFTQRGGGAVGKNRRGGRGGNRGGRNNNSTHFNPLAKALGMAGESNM

The next experiment has as its target T4, MBP–Nab2p NLS R235A (S. cerevisiae, UniProt P32505 201-251, R235A).
T4 sequence: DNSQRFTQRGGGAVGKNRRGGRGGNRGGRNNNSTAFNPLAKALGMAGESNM

For the next experiment, the target named is T5, MBP–Nab2p NLS F236L (S. cerevisiae, UniProt P32505 201-251, F236L).
T5 sequence: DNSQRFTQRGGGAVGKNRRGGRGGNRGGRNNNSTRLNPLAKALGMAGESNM

B1: Kap104p (receptor)
chain: MASTWKPAEDYVLQLATLLQNCMSPNPEIRNNAMEAMENFQLQPEFLNYLCYILIEGESDDVLKQHYSLQDLQNNRATAGMLLKNSMLGGNNLIKSNSHDLGYVKSNIIHGLYNSNNNLVSNVTGIVITTLFSTYYRQHRDDPTGLQMLYQLLELTSNGNEPSIKALSKIMEDSAQFFQLEWSGNTKPMEALLDSFFRFISNPNFSPVIRSESVKCINTVIPLQTQSFIVRLDKFLEIIFQLAQNDENDLVRAQICISFSFLLEFRPDKLVSHLDGIVQFMLHLITTVNEEKVAIEACEFLHAFATSPNIPEHILQPYVKDIVPILLSKMVYNEESIVLLEASNDDDAFLEDKDEDIKPIAPRIVKKKEAGNGEDADDNEDDDDDDDDEDGDVDTQWNLRKCSAATLDVMTNILPHQVMDIAFPFLREHLGSDRWFIREATILALGAMAEGGMKYFNDGLPALIPFLVEQLNDKWAPVRKMTCWTLSRFSPWILQDHTEFLIPVLEPIINTLMDKKKDVQEAAISSVAVFIENADSELVETLFYSQLLTSFDKCLKYYKKKNLIILYDAIGRFAEKCALDETAMQIILPPLIEKWALLSDSDKELWPLLECLSCVASSLGERFMPMAPEVYNRAFRILCHCVELEAKSHQDPTIVVPEKDFIITSLDLIDGLVQGLGAHSQDLLFPQGTKDLTILKIMLECLQDPVHEVRQSCFALLGDIVYFFNSELVIGNLEDFLKLIGTEIMHNDDSDGTPAVINAIWALGLISERIDLNTYIIDMSRIILDLFTTNTQIVDSSVMENLSVTIGKMGLTHPEVFSSGAFANDSNWNKWCLSVNALDDVEEKSSAYMGFLKIINLTSTEVTMSNDTIHKIVTGLSSNVEANVFAQEIYTFLMNHSAQISAINFTPDEISFLQQFTS
The term Kd denotes a measure of binding affinity in units of concentration. As for B1, the Kd with MBP–Nab2p NLS F236A came out at 296 nM; in experiment [1], 21 nM; in the experiment with MBP–Nab2p NLS R235H, 63 nM; in the experiment with MBP–Nab2p NLS R235A it was 203 nM; in the experiment with MBP–Nab2p NLS F236L it was 66 nM.
